Laboratory results taken from paper doi:10.1101/823146 (bioRxiv, 2019).
One block for each molecule: values may come before it.

Key:
[1] = target: 6xHis-tagged RcsF (E. coli) (UniProt P69411); assay: BLI
[2] = target: Untagged BamA (biolayer interferometry) (E. coli), P0A940; assay: BLI; settings: remark: other sources report otherwise
[3] = target: BamABCDE holocomplex (BAM) (E. coli, UniProt P0A940;P77774;P0A903;P0AC02;P0A937); assay: native gel or EMSA
BamABDE complex = BamABDE complex (E. coli, UniProt P0A940;P77774;P0AC02;P0A937); assay: native gel or EMSA
BamACDE complex = BamACDE complex (E. coli, UniProt P0A940;P0A903;P0AC02;P0A937); assay: native gel or EMSA
Sequence of BamACDE complex (P0A903 25-344, chain 2 of 3): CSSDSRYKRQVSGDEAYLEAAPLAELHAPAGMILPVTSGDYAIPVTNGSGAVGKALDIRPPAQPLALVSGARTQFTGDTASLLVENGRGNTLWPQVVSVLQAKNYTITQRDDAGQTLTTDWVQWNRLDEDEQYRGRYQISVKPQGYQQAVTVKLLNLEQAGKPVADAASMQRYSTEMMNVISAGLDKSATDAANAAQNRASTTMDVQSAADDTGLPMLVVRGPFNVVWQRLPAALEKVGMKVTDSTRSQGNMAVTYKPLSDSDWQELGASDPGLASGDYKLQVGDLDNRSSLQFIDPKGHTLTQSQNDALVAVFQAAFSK
Sequence of BamACDE complex (P0AC02 20-245, chain 3 of 3): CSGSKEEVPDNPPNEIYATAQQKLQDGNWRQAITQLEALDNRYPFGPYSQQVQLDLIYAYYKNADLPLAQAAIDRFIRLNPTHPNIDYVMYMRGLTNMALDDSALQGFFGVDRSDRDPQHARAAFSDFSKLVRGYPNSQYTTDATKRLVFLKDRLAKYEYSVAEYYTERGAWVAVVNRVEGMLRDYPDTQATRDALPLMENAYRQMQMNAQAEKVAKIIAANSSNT
Sequence of BamACDE complex (P0A937 20-113, chain 4 of 3): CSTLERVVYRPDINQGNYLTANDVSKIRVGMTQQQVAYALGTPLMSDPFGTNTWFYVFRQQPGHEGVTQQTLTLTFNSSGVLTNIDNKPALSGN

Sequence of BamABDE complex (P77774 20-392, chain 2 of 3): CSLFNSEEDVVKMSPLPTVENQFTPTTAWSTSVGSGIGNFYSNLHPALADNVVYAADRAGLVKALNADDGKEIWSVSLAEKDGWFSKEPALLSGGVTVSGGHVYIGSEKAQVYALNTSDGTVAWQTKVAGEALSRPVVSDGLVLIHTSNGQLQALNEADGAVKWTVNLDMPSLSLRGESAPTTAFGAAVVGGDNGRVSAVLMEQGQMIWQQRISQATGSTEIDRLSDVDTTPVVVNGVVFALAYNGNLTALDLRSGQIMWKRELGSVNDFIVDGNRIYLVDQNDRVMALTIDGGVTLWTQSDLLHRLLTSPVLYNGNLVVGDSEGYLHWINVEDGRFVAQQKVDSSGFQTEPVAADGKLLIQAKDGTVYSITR
Sequence of BamABDE complex (P0AC02 20-245, chain 3 of 3): as the sequence (P0AC02 20-245, chain 3 of 3) above
Sequence of BamABDE complex (P0A937 20-113, chain 4 of 3): as the sequence (P0A937 20-113, chain 4 of 3) above
Sequence of BamABCDE holocomplex (BAM) (P77774 20-392, chain 2 of 4): as the sequence (P77774 20-392, chain 2 of 3) above
Sequence of BamABCDE holocomplex (BAM) (P0A903 25-344, chain 3 of 4): as the sequence (P0A903 25-344, chain 2 of 3) above
Sequence of BamABCDE holocomplex (BAM) (P0AC02 20-245, chain 4 of 4): as the sequence (P0AC02 20-245, chain 3 of 3) above
Sequence of BamABCDE holocomplex (BAM) (P0A937 20-113, chain 5 of 4): as the sequence (P0A937 20-113, chain 4 of 3) above

Kd [1]: 420 nM
Molecule: Untagged BamA (biolayer interferometry) (from UniProt P0A940 21-810) (natural protein; other documents disagree on this pair)

Kd [2]: 350 nM
B1: 6xHis-tagged RcsF, P69411 16-134 (natural protein)
chain: CSMLSRSPVEPVQSTAPQPKAEPAKPKAPRATPVRIYTNAEELVGKPFRDLGEVSGDSCQASNQDSPPSIPTARKRMQINASKMKANAVLLHSCEVTSGTPGCYRQAVCIGSALNITAK
modifications: here or on the partner: biotin (EZ-Link NHS-PEG4-biotin) where BamA was immobilised on streptavidin tips

binding result [3]: binds
binding result (BamABDE complex): binds
binding result (BamACDE complex): binds
B2: RcsF (overexpressed from pSC216) (natural protein)
chain: B1 chain
modifications: lipid anchor (outer membrane lipoprotein)
